The subject of test [1] is 293T cells. Description: Hexose uptake assay: 2-deoxyglucose. Format: cell-based, human. The following applies: for glucose uptake in presence of glucose transporter inhibitors: control 293T cells, 20 μM cytochalasin B, 300 μM phloretin. On the procedure: (§1) Assay of hexose uptake. 2-deoxy-D[1-^3H]glucose, D[U-^14C]fructose and 3-O-[^14C]methyl-D-glucose were obtained from Amersham. Hexose uptake assay were adapted from Harrison et al. 1991). After transfection, approximately 250,000 were seeded/well in 24-well plates. […] Uptake was initiated by adding labeled hexoses to a final concentration of 0.1 mM (2 μCi/ml for 2-2-deoxy-D[1-^3H]glucose and 0.2 μCi/ml for D[U-^14C]fructose and 3-O-[^14C]methyl-D-glucose) and cells were incubated for 5′ additional minutes. Cells were then resuspended in 500 μl cold serum-free glucose-free DMEM, wash one time in serum-free glucose-free DMEM, and solubilized in 400 μl of 0.1% SDS. 3 μl was used for Bradford normalization, while the rest was used for detection of either ^3H or ^14C by liquid scintillation in a Beckman counter.

The target of test [2] is T1, GLUT-1 (Homo sapiens, UniProt P11166).
T1 construct: factor Xa cleavage site (C); His (C); expressed in transfected cells
T1 sequence (P11166 1-492): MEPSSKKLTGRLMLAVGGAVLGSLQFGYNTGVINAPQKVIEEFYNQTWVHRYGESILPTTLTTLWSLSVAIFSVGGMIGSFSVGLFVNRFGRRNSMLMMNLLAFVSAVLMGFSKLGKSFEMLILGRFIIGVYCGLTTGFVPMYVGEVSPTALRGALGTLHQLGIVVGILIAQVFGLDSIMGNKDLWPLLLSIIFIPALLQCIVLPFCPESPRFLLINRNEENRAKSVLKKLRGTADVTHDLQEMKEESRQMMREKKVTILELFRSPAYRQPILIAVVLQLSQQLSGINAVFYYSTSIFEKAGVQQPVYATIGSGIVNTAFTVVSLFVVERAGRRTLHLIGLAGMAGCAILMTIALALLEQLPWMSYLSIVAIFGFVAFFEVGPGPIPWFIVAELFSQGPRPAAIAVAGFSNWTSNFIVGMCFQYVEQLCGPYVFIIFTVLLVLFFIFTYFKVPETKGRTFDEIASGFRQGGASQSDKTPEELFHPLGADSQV
Description: Colocalization with GLUT-1 by fluorescence microscopy. Format: cell-based. The source says:
(§2) In order to directly test the ability of HTLV envelopes to bind GLUT-1, we derived a tagged GLUT-1 expression vector and overexpressed this protein in HeLa cells. […] GLUT-3 is the closest isoform to GLUT-1, and transports glucose with kinetics similar to that of GLUT-1. Thus, we derived a tagged GLUT-3 expression vector. […] To determine if GLUT-1 transfected cells were directly responsible for the observed increased in H1RBD binding, we derived fluorescent tagged GLUT-1 and GLUT-3 to uniquevocally identity GLUT-overexpressing cells in the course of our FACS analysis. […] Consequently, we tested if HTLV glycoproteins directly interact with GLUT-1 proteins. To this end, we evaluated the ability of H1RBD to immunoprecipitate GLUT-1. […] Therefore, the GLUT-1 glucose transporter is an essential component of the HTLV envelope receptor.

Test [3] concerns PiT2. Description: Colocalization with PiT2 by fluorescence microscopy. Format: cell-based.
Test [4] deals with 293T cells. Description: Medium acidification after transfection of envelope expression vectors. The following applies: 293T cells transfected with envelope expression vector; phenol-red pH indicator. It is filed as cell-based, human.
The subject of test [5] is 293T cells. Description: Hexose uptake assay: fructose. It is filed as cell-based, human. The following applies: transfected 293T cells. On the procedure: as §1
Test [6] addresses T1, GLUT-1. Description: RBD binding to cells overexpressing GLUT-1. The note with it: tagged GLUT-1 expression vector, HeLa cells / 293T cells (FIG. 4a legend).
Description: as §2
Expression vectors. Full length envelope expression vectors for HTLV-1 (pCEL/2[Denesvre, 1995]) and Friend ecotropic MLV (pCEL/F [Denesvre, 1995]), have been previously described. For the HTLV-2 envelope, a fragment from pHTE2 [Rosenberg, 1998] encompassing the tax, rex and env genes and the 3′ LTR was inserted in the pCSI [Battini, 1999] vector (pCSIX.H2). Full length envelope expression vectors for amphotropic MLV (pCSI.A), or devoid of its R peptide (pCSI.AΔR), and H183FEnv that contains the N-terminal 183 amino acids of the HTLV-1 receptor-binding domain in the F-MLV envelope background, as well as truncated envelope expression vectors, derived from pCSI and encoding either of the first 215 residues of HTLV-1 SU (H1RBD), the first 178 residues of HTLV2-SU (H2RBD) or the first 397 residues of the amphotropic murine leukemia virus (MLV) SU (Amp), fused to a C-terminal rabbit IgG Fc tag (rFc) or to EGFP (H2RBD-GFP). All point mutations introduced in HTLV-1 and -2 RBD constructs were generated using the quickchange site-directed mutagenesis method and mutations were verified by sequencing. Human Glut-1 and Glut-3 cDNA were amplified by PCR from the pLib HeLa cDNA library (Clontech), and inserted into pCHIX, a modified version of the pCSI vector that contains a cassette comprising a factor Xa cleavage site, two copies of the hemagglutinin (HA) tag, and a histidine tag. The resulting construct (pCHIX.hGLUT1) encodes a GLUT-1 protein with a HA-His tag at the C-terminal end. GLUT-1 and GLUT-3 were also inserted in a modified pCSI vector containing a DsRed2 C-terminal tag. Similarly, human CD147 was amplified from 293T total RNA by RT-PCR and inserted into the pCHIX backbone in frame with the HA-His tag (pCHIX.hCD147).
Binding assays. […] Binding was analyzed on a FACSCalibur (Becton Dickinson) and data analysis was performed using CellQuest (Becton Dickinson) and WinMDI (Scripps) softwares.

Test [7] has as its system PiT2. Description: RBD binding to cells overexpressing PiT2.
In test [8] the test system is MLV particles pseudotyped with HTLV-2 envelopes. Nature of the test: Interference to infection by HTLV-2 envelope pseudotyped MLV particles. Format: cell-based. The following applies: 293T cells transfected with H2RBD expression vector. The text has this: (§3) Viral receptor permits entry and thus infection. No cellular system currently exists that lacks GLUT-1 expression. […] In this system, over-expression of HTLV-2 RBD interferes with infecting incoming HTLV particles and specifically decreases HTLV titers by at least 2 logs, while no effect is detected on control A-MLV titers. To determine if GLUT-1 is an entry receptor for HTLV, we overexpressed GLUT-1, GLUT-3 or Pit2 in addition to the interfering H2RBD. While Pit2 and GLUT-3 had no effect on HTLV titers, GLUT-1 completely alleviated the interference to infection induced by H2RBD (FIG. 5). […] Thus, GLUT-1 is an entry receptor for HTLV.
(§4) Infections. 293T cells were transfected in 6-wells plate, and one day after transfection, medium was replaced by high glucose DMEM supplemented with fructose (5 g/l) and non-essential amino acids. The next day, infection was initiated by adding supernatants containing MLV particles pseudotyped with either HTLV-2 or A-MLV envelopes. The following day, fresh medium was added, and 24 hours later cells were fixed and stained for alkaline phosphatase activity and dark focus of infection were counted. Viral particles were obtained by transfecting 293T cells with pLAPSN, pGagPol and either pCSIX.H2 or pCSI.A, and harvesting the 0.45 μm-filtered supernatants 24 hours later.

Test [9] concerns MLV particles pseudotyped with A-MLV envelopes. Description: Interference to infection by A-MLV envelope pseudotyped MLV particles. The note with it: 293T cells transfected with H2RBD expression vector. Format: cell-based.
Description: as §3, §4

In test [10] the test system is 293T cells. Nature of the test: Extracellular lactate in culture medium of transfected cells. It is filed as cell-based, human. The note with it: medium of 293T cells one day post transfection. On the procedure: Envelope expression and metabolic measurements. 293T cells were transfected with the various envelope expression vectors using a modified version of the calcium phosphate method. After an overnight transfection, cells were washed in phosphate-buffered saline (PBS) and fresh medium was added. Media were harvested at the indicated time points, filtered through a 0.45-μm pore-size filter, and lactate and glucose were measured with enzymatic diagnostic kits (Sigma). Values were normalized to cellular protein content using the Bradford assay (Sigma) after solubilization of cells in lysis buffer (50 mM Tris-HCl pH 8.0, 150 mM NaCl, 0.1% sodium dodecyl sulfate, 1.0% Nonidet P-40, 0.5% deoxycholate) and clarification by centrifugation.

In another test the target is T2, HTLV receptor (Homo sapiens, UniProt P11166).
T2 construct: endogenous in cells; host or cells: HeLa cells
T2 sequence (P11166 1-492): T1 sequence (P11166 1-492)
Nature of the test: FACS binding assay of RBD and mutants on HeLa cells. On the procedure: Binding assays. Binding assays were carried out as previously described [Manel, 2003]. Briefly, 5×10^5 cells (293T, HeLa, Jurkat or freshly isolated human erythrocytes) were incubated with 500 μl of H1RBD, H2RBD or ARBD supernatants for 30 min at 37° C., washed with PBA (1% BSA, 0.1% sodium azide in PBS), and incubated with a sheep anti-rabbit IgG antibody conjugated to fluorescein isothiocyanate (Sigma). […] Binding was analyzed on a FACSCalibur (Becton Dickinson) and data analysis was performed using CellQuest (Becton Dickinson) and WinMDI (Scripps) softwares.
For orientation: In flow cytometry, cells or beads pass a laser one at a time.

Test [11] deals with T1, GLUT-1. Nature of the test: Immunoprecipitation of GLUT-1-HA with anti-rabbit-Fc beads. It is filed as binding. The following applies: co-expression with GLUT-1 in 293T cells, probed with anti-HA antibody. The text has this: FIGS. 4a-4c GLUT-1 is a receptor for HTLV envelopes. FIG. 4a, Binding of H1RBD, H2RBD, H2RBD D102A mutant, and ARBD to control 293T cells or 293T cells overexpressing either GLUT-1 or PiT2. FIG. 4b, Binding of H2RBD-EGFP to cells overexpressing GLUT-1-HA or GLUT-3-HA, and corresponding immunoblots using an anti-HA antibody. FIG. 4c, Immunoprecipitation of GLUT-1-HA from 293T cells transfected with either an irrelevant construct, GLUT-1 alone, H1RBD alone, H1RBD Y114A alone, GLUT-1 with H1RBD or GLUT-1 with H1RBD Y114A expression vectors Immunoprecipitation was performed using anti-rabbit-Fc beads and probed with an anti-HA antibody. Total cell extracts were blotted using an anti-rabbit Fc or an anti-HA antibody.
In order to directly test the ability of HTLV envelopes to bind GLUT-1, we derived a tagged GLUT-1 expression vector and overexpressed this protein in HeLa cells. […] GLUT-3 is the closest isoform to GLUT-1, and transports glucose with kinetics similar to that of GLUT-1. Thus, we derived a tagged GLUT-3 expression vector. […] To determine if GLUT-1 transfected cells were directly responsible for the observed increased in H1RBD binding, we derived fluorescent tagged GLUT-1 and GLUT-3 to uniquevocally identity GLUT-overexpressing cells in the course of our FACS analysis. […] To this end, we evaluated the ability of H1RBD to immunoprecipitate GLUT-1. […]

Positions count from the first letter of the chain named. Names may count otherwise.

`C=C1[C@@H](C)[C@H]2[C@H](Cc3ccccc3)NC(=O)[C@]23OC(=O)/C=C/[C@H](O)CCC[C@@H](C)C/C=C/[C@H]3[C@@H]1O` [cytochalasin B, reference compound]: in the test on 293T cells [1], the “glucose uptake in presence of glucose transporter inhibitors” value was “inhibited glucose uptake”.
The same measure, in the same setting: in the case of `O=C(CCc1ccc(O)cc1)c1c(O)cc(O)cc1O` [phloterin, phloretin, reference compound] it was “inhibited glucose uptake”.
For GFP-tagged HTLV-2 RBD, the “colocalization with GLUT-1” value in the test with GLUT-1 [2] is reported as “colocalized with GLUT-1”. For the same molecule, in the test on PiT2 [3], the “colocalization with PiT2” value was “not with PiT2”.
For “HTLV-2 Env: full length syncytial wild-type HTLV-2 envelope (pCSIX.H2) (MKWVTFISLLFLFSSAYS)”, in the test on 293T cells [4], the medium acidification entry is reported as “did not readily acidify”.

B1: H2RBD: first 178 residues of HTLV2-SU fused to a C-terminal rabbit IgG Fc tag (rFc) (protein)
chain: VDVPRDCGCKPCICTVPEVSSVFIFPPKPKDVLTITLTPKVTCVVVDISKDDPEVQFSWFVDDVEVHTAQTQPREEQFNSTFRSVSELPIMHQDWLNGKEFKCRVNSAAFPAPIEKTISKTKGRPKAPQVYTIPPPKEQMAKDKVSLTCMITDFFPEDITVEWQWNGQPAENYKNTQPIMDTDGSYFVYSKLNVQKSNWEAGNTFTCSVLHEGLHNHHTEKSLSHSPGK
On to B1, for which the “decrease in 2-deoxyglucose uptake” value in the test with 293T cells [1] (transfected 293T cells vs control cells) is reported as “approximately 4 fold”. The Fructose uptake entry with 293T cells [5] is “not altered”. In addition, the “binding upon GLUT-1 overexpression” value with GLUT-1 [6] was “dramatically increased”. Moreover, the “binding upon overexpression of PiT2” value with PiT2 [7] is “remained at background levels”. Moreover, the “decrease of HTLV titers by over-expression of interfering RBD” value in test [8] is on record as “at least 2 logs”. In [9], the “effect on control A-MLV titers” value is given as “no effect”.

B2: D106A (protein)
chain: DYSPSCCTLTIGVSSYHSKPCNPAQPVCSWTLDLLALSADQALQPPCPNLVSYSSYHATYSLYLFPHWIKKPNRNGGGYYSASYSAPCSLKCPYLGCQSWTCPYTGAVSSPYWKFQQDVNFTQEVSRLNINLHFSKCGFPFSLLVDAPGYDPIWFLNTEPSQLPPTAPPLLPHSNLDHILEPSIPWKSKLLTLVQ
On to B2, for which, in the test with 293T cells [10], the “lactate accumulation in cells expressing RBD mutant” value was “minimally reduced”. Also, the “binding to the HTLV receptor as detected by FACS analysis” value with HTLV receptor is on record as “significantly reduced”. Moreover, the “binding upon GLUT-1 overexpression” value in the test with GLUT-1 [6] is recorded as “did not bind GLUT-1”.

B3: Y114A (protein)
chain: B2 chain with A86D, Y94A
On to B3, for which the “lactate accumulation in cells expressing RBD mutant” value with 293T cells [10] is on record as “not reduced”. Moreover, the “binding to the HTLV receptor as detected by FACS analysis” value with HTLV receptor is “non-detectable”. The “detection of GLUT-1 upon immunoprecipitation with anti-rabbit-Fc-beads” value with GLUT-1 [11] is reported as “could not be detected”.

For the origin of these results see patent US9777044B2, “GLUT-1 as a receptor for HTLV envelopes and its uses” (CENTRE NATIONAL DE LA RECHERCHE SCIENTIFIQUE (CNRS), priority 2003, dated 2017).
